Source: patent US20110150861A1

Biological target: human TNFalpha (human) (UniProt P01375)
Assay: SPR (BiaCore), antibody purified by protein A and SEC

Sequence of UniProt P01375 (P01375 77-233 limits assumed): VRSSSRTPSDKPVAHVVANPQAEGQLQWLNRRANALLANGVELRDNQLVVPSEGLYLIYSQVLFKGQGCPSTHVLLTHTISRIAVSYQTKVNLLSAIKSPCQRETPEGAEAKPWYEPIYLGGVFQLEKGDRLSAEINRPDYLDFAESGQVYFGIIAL

Kd: 0.0729 nM | koff: 0.00011 s⁻¹ | kon: 1.51e+06 M⁻¹ s⁻¹
Substance: D2E7 antibody product secreted from sORF construct pTT3-pfu lon HL (-)
